Measured values: patent US9845340B2, “Peptides that specifically bind HGF receptor (cMet) and uses thereof” (Dyax Corp., priority 2003, dated 2017)

How the values were obtained:
cMet-Fc fusion protein [1] = target: T1, cMet-Fc fusion protein (Homo sapiens, UniProt P08581); experiment: Protein phage ELISA: peptide-displaying phage binding to soluble cMet-Fc versus TRAIL-Fc; details: phage isolate; cMet-Fc vs. TRAIL-Fc
Outline: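 Phage displaying selected peptides were incubated 2 h at room temperature on wells coated with 0.5 μg/mL cMet-Fc, with TRAIL-Fc coating as the unrelated-Fc specificity control.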

[2] = target: T2, 3T3 cells that over-express human cMet (Homo sapiens, UniProt P08581); experiment: Whole cell ELISA of peptide-displaying phage; assay type: cell-based; details: phage isolate; 3T3 cells expressing human cMet vs. non-expressing 3T3 cells
T2 construct: expressed in transfected cells; host or cells: 3T3 cells
Outline: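 Phage displaying peptides, pre-blocked 1 h at 37 °C, incubated 1 h at RT on glutaraldehyde-fixed (0.1%, 12 min, 37 °C) cMet-overexpressing 3T3 cells (10^5 per well). Binding read out by HRP anti-M13 antibody after PBST washing.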

[3] = target: T3, cMet-Fc fusion protein (or similar target) (Mus musculus, UniProt P16056); experiment: Fluorescence anisotropy / polarization direct binding, mouse cMet; parameters: key: NB = no binding; details: fluorescein-labeled peptide
T3 construct: Fc
Description: Fluorescence anisotropy measurements were performed in 384-well microplates in a volume of 10 μL in binding buffer (PBS, 0.01% Tween-20, pH 7.5) using a Tecan Polarion fluorescence polarization plate reader ([…]). The concentration of fluorescein-labeled peptide was held constant (20 nM) and the concentration of cMet-Fc fusion protein (or similar target) was varied. Binding mixtures were equilibrated for 10 minutes in the microplate at 30 C before measurement. The observed change in anisotropy was fit to the equation below via nonlinear regression to obtain the apparent KD. This equation (1) assumes that the synthetic peptide and cMet form a reversible complex in solution with 1:1 stoichiometry.
[formula] where robs is the observed anisotropy, rfree is the anisotropy of the free peptide, rbound is the anisotropy of the bound peptide, KD is the apparent dissociation constant, cMet is the total cMet concentration, and P is the total fluorescein-labeled peptide concentration. KD was calculated in a direct binding assay (KD,B) and therefore these values represent cMet binding to the fluorescein labeled peptide.

cMet-Fc fusion protein [4] = target: T1, cMet-Fc fusion protein; experiment: HGF competition protein ELISA; details: % of binding in the absence of HGF
Description: This competition ELISA identifies peptides that serve as “HGF antagonistic peptides”, peptides that block HGF-mediated signaling events (e.g., proliferation). These assays were conducted using the peptide-displaying phage discovered from the initial selection and screening campaigns using the first generation peptide libraries. Briefly, 96-well plates were coated overnight at 4 C with 0.5 μg/mL of cMet-Fc fusion protein or TRAIL-Fc fusion protein (background). The plates were blocked for 2 hours at 37 C with 3% BSA in PBST. The plates were washed with PBST, and 100 μL of HGF (either at 100 ng/mL or 500 ng/mL in PBST) was added to each well. The plates were incubated for 30 minutes at room temperature after which the plates were washed with PBST and 70 μL of HGF (143 ng/mL or 714 ng/mL) or 70 μL of PBST was added to the respective wells. This was followed by an addition of 30 μL of peptide-displaying phage overnight culture to each well. The plates were incubated for 2 hours at room temperature, washed with PBST and cMet-binding peptide-displaying phage was detected using an HRP-conjugated anti-M13 antibody.

T2 sequence (P08581 25-1390): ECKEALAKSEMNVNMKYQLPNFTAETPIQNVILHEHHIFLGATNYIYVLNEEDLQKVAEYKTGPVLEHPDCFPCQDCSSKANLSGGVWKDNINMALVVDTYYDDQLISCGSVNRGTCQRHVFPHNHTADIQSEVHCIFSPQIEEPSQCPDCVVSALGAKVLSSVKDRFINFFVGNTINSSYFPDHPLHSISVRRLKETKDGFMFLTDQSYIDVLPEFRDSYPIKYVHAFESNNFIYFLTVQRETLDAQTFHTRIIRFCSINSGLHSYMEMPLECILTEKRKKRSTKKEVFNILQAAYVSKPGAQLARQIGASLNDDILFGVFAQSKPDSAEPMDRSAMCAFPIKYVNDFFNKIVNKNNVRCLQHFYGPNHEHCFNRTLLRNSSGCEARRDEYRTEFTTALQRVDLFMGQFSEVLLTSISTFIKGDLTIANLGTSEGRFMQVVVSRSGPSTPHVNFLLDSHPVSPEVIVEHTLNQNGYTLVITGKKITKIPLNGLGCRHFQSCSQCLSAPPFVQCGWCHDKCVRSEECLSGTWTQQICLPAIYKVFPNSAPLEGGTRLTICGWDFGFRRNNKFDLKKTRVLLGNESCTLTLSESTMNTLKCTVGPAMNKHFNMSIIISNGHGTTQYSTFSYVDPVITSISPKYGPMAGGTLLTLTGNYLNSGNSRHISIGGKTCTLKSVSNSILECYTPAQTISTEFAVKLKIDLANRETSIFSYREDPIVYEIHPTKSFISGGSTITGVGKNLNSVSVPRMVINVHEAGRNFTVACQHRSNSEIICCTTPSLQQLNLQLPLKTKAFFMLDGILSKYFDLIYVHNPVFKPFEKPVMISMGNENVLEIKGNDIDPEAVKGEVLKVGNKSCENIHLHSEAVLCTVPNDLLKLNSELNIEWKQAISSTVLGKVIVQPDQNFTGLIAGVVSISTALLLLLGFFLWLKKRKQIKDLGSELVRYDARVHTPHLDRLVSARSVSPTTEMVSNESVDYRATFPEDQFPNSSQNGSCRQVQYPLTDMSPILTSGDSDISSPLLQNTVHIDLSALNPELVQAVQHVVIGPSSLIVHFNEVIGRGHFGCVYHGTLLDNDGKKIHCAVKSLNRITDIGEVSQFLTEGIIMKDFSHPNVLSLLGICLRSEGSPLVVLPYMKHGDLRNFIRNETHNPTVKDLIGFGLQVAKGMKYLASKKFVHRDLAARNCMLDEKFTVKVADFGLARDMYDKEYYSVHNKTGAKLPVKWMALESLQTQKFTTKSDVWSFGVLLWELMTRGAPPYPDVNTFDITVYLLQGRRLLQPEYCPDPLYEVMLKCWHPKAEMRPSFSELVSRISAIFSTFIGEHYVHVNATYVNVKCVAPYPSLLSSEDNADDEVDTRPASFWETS
T1 sequence (P08581 25-307 limits assumed): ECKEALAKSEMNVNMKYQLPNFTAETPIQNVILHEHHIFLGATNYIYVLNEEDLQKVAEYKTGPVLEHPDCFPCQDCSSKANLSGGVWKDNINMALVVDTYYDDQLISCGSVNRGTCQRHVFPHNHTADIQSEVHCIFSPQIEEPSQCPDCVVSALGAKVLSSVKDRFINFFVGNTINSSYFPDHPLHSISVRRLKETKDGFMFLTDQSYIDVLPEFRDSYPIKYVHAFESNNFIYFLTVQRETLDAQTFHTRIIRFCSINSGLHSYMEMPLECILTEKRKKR
T1 sequence (P08581 with tags, fused parts or gaps limits assumed): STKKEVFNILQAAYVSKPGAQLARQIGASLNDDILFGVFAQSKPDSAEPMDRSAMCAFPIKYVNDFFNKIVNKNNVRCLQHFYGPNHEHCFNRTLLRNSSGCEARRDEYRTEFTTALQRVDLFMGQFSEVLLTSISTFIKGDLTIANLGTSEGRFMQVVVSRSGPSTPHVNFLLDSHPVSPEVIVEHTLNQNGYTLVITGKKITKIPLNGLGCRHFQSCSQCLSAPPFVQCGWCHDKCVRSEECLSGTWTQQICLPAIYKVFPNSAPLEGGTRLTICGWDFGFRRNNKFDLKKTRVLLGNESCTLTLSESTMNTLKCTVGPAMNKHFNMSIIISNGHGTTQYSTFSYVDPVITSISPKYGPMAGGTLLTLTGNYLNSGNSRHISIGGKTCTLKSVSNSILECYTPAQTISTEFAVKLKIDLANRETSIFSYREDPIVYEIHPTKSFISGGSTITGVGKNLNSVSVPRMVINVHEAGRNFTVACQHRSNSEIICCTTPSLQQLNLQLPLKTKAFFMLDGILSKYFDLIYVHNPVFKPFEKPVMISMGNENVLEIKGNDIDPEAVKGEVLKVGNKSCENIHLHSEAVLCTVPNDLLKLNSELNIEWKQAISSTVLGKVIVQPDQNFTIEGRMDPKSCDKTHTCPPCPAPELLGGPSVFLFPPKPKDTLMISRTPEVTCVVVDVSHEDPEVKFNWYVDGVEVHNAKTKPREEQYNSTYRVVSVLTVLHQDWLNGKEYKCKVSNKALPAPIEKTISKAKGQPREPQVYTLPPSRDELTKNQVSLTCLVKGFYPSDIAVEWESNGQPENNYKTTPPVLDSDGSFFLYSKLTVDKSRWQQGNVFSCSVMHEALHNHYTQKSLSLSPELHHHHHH
T3 sequence (P16056 25-306 limits assumed): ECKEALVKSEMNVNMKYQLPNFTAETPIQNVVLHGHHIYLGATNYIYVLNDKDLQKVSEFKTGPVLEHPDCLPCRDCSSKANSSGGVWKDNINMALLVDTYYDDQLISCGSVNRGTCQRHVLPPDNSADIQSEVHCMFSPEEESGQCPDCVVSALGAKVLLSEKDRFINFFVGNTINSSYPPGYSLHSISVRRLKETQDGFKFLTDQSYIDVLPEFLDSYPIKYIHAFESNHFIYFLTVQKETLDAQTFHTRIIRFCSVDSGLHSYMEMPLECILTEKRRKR
T3 sequence (P16056 307-929 limits assumed): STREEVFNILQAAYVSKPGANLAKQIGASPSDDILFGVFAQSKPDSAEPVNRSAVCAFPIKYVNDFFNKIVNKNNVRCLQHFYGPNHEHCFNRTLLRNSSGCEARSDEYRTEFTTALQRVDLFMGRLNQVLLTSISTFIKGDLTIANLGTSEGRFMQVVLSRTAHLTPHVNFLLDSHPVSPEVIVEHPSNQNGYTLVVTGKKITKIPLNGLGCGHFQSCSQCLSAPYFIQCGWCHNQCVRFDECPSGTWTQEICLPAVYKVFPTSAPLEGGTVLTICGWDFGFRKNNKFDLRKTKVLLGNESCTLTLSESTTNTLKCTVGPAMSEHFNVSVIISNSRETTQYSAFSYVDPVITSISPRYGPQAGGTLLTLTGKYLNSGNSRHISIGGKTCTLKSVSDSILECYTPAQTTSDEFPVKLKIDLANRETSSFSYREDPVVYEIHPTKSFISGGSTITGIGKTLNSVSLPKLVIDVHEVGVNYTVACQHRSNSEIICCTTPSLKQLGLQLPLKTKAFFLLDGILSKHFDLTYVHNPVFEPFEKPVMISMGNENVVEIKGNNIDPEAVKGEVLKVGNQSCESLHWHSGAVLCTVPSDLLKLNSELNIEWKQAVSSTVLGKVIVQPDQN

Compound | Protein ELISA (cMet-Fc fusion protein [1]) [fold over background] | WC ELISA [2] [fold over background] | Kd (mouse) [3] | HGF 100 ng/mL (cMet-Fc fusion protein [4]) | HGF 500 ng/mL (cMet-Fc fusion protein [4]; HGF 500 ng/mL) [%]
CC[C@H](C)[C@@H]1NC(=O)[C@H](CCCNC(=N)N)NC(=O)[C@H](Cc2c[nH]c3ccccc23)NC(=O)[C@@H](NC(=O)[C@@H]2CCCN2C(=O)[C@H](Cc2ccccc2)NC(=O)[C@H](Cc2ccccc2)NC(=O)[C@H](CO)NC(=O)CNC(C)=O)CSSC[C@@H](C(=O)N[C@@H](Cc2c[nH]cn2)C(=O)N[C@@H](C)C(=O)N[C@@H](CC(N)=O)C(=O)N[C@@H](C)C(=O)N2CCC[C@H]2C(=O)NCC(=O)NCC(=O)NCC(=O)N[C@@H](CCCCNC(=O)c2ccc3c(c2)C(=O)OC32c3ccc(O)cc3Oc3cc(O)ccc32)C(N)=O)NC(=O)[C@H](Cc2ccc(O)cc2)NC(=O)CNC(=O)[C@H](Cc2ccccc2)NC(=O)[C@H](CCCNC(=N)N)NC(=O)[C@H](CC(=O)O)NC1=O [SEQ ID NO: 370] | 13.3 | 1.87 | NB | – | –
AGWYNCSGENFWNCKWIGT (Synthetically generated cMet-binding peptide sequence) [SEQ ID NO: 082] | 14.3 | 1.43 | – | 61% | 79
GSILYCINRNDPQCPYTAP (Synthetically generated cMet-binding peptide sequence) [SEQ ID NO: 101] | 3.0 | 1.27 | – | 9S% | –
CC(=O)N[C@@H](C)C(=O)NCC(=O)N[C@@H](Cc1ccc(O)cc1)C(=O)N[C@H](C(=O)N[C@@H](CO)C(=O)N[C@H]1CSSC[C@@H](C(=O)N[C@H](C(=O)N2CCC[C@H]2C(=O)N[C@@H](Cc2ccc(O)cc2)C(=O)NCC(=O)N[C@H](C(=O)NCC(=O)NCC(=O)NCC(=O)N[C@@H](CCCCNC(=O)c2ccc3c(c2)C(=O)OC32c3ccc(O)cc3Oc3cc(O)ccc32)C(N)=O)[C@@H](C)O)[C@@H](C)O)NC(=O)[C@H](CCC(=O)O)NC(=O)[C@H](Cc2ccccc2)NC(=O)[C@H](CO)NC(=O)[C@@H]2CCCN2C(=O)[C@@H]2CCCN2C(=O)CNC(=O)[C@H](C(C)C)NC1=O)[C@@H](C)O [SEQ ID NO: 059] | 21.2 | 1.43 | – | – | –
GSSQICAVYLDDTHNCERHAP (Synthetically generated cMet-binding peptide sequence) [SEQ ID NO: 373] | 4.0 | 1.30 | – | – | –
AGTLSCSEEYKSCQLQGT (Synthetically generated cMet-binding peptide sequence) [SEQ ID NO: 027] | 3.6 | 1.30 | – | – | –
CC[C@H](C)[C@H](NC(=O)[C@H](Cc1c[nH]c2ccccc12)NC(=O)[C@H](CO)NC(=O)CNC(C)=O)C(=O)N[C@H](C(=O)N[C@H]1CSSC[C@@H](C(=O)NCC(=O)N[C@@H](CO)C(=O)N[C@@H](CO)C(=O)N[C@@H](C)C(=O)N2CCC[C@H]2C(=O)NCC(=O)NCC(=O)NCC(=O)N[C@@H](CCCCNC(=O)c2ccc3c(c2)C(=O)OC32c3ccc(O)cc3Oc3cc(O)ccc32)C(N)=O)NC(=O)[C@H](CC(N)=O)NC(=O)[C@H](CC(=O)O)NC(=O)[C@H](Cc2c[nH]c3ccccc23)NC(=O)[C@H](Cc2c[nH]c3ccccc23)NC1=O)[C@@H](C)CC [SEQ ID NO: 001] | 4.9 | 1.30 | – | – | –
AGGNWCSFYEELCEWLGT (Synthetically generated cMet-binding peptide sequence) [SEQ ID NO: 043] | 4.2 | 1.37 | – | – | –
GDASMCYDGLALRWDQCWPHDP (Synthetically generated cMet-binding peptide sequence) [SEQ ID NO: 404] | 3.4 | 1.30 | – | – | –
CC[C@H](C)[C@H](NC(=O)[C@H](Cc1c[nH]c2ccccc12)NC(=O)[C@H](Cc1c[nH]cn1)NC(=O)CNC(=O)[C@H](C)NC(C)=O)C(=O)N[C@H]1CSSC[C@@H](C(=O)N[C@@H](CCC(N)=O)C(=O)N[C@@H](Cc2c[nH]c3ccccc23)C(=O)N[C@@H](Cc2c[nH]cn2)C(=O)NCC(=O)N[C@H](C(=O)NCC(=O)NCC(=O)NCC(=O)N[C@@H](CCCCNC(=O)c2ccc3c(c2)C(=O)OC32c3ccc(O)cc3Oc3cc(O)ccc32)C(N)=O)[C@@H](C)O)NC(=O)[C@H](CO)NC(=O)[C@H](Cc2ccccc2)NC(=O)[C@H]([C@@H](C)O)NC(=O)[C@@H]2CCCN2C(=O)[C@@H]2CCCN2C(=O)CNC(=O)[C@H](C(C)C)NC1=O [SEQ ID NO: 071] | 13.5 | 1.40 | – | – | –
AQKTWFLEADLFQMFQEVTWQF (Synthetically generated cMet-binding peptide sequence) [SEQ ID NO: 490] | 3.0 | 1.40 | – | – | –
AGNLPCHWNMSVCDHQGT (Synthetically generated cMet-binding peptide sequence) [SEQ ID NO: 034] | 3.3 | 1.30 | – | – | –
CSCC[C@@H]1NC(=O)[C@@H](NC(=O)[C@H](CCSC)NC(=O)[C@H](CCC(=O)O)NC(=O)[C@@H]2CCCN2C(=O)[C@H](CO)NC(=O)CNC(C)=O)CSSC[C@@H](C(=O)N[C@@H](CC(N)=O)C(=O)N[C@@H](Cc2c[nH]cn2)C(=O)N[C@@H](Cc2c[nH]cn2)C(=O)N[C@@H](C)C(=O)N2CCC[C@H]2C(=O)NCC(=O)NCC(=O)NCC(=O)N[C@@H](CCCCNC(=O)c2ccc3c(c2)C(=O)OC32c3ccc(O)cc3Oc3cc(O)ccc32)C(N)=O)NC(=O)[C@@H]2CCCN2C(=O)[C@H](Cc2ccc(O)cc2)NC(=O)[C@H](CC(C)C)NC(=O)[C@H](Cc2ccccc2)NC(=O)[C@@H]2CCCN2C(=O)[C@H](Cc2ccccc2)NC(=O)[C@H](CCSC)NC1=O [SEQ ID NO: 369] | – | – | NB | – | –
CC[C@H](C)[C@H](NC(=O)[C@@H]1CCCN1C(=O)[C@H](Cc1ccc(O)cc1)NC(=O)[C@H](CO)NC(=O)[C@H](CCSC)NC(=O)[C@H](C)NC(=O)[C@H](CC(C)C)NC(=O)[C@H](CCCCN)NC(=O)[C@H](Cc1ccc(O)cc1)NC(=O)[C@H](Cc1c[nH]cn1)NC(=O)[C@H](C)NC(=O)[C@H](CCC(=O)O)NC(=O)[C@@H]1CCCN1C(=O)[C@H](CCCNC(=N)N)NC(=O)[C@H](CCC(N)=O)NC(=O)[C@H](C)NC(C)=O)C(=O)N[C@H](C(=O)N1CCC[C@H]1C(=O)N[C@@H](CCCNC(=N)N)C(=O)N[C@H](C(=O)N[C@@H](CCCCN)C(=O)N[C@H](C(=O)NCC(=O)NCC(=O)NCC(=O)N[C@@H](CCCCNC(=O)c1ccc2c(c1)C(=O)OC21c2ccc(O)cc2Oc2cc(O)ccc21)C(N)=O)[C@@H](C)O)[C@@H](C)O)[C@@H](C)CC [SEQ ID NO: 452] | 35.3 | 1.37 | – | – | –
GSSTICPGTACVDHAP (Synthetically generated cMet-binding peptide sequence) [SEQ ID NO: 008] | 3.2 | 1.27 | – | – | –
AGDFICQGPPSFVCTNIGT (Synthetically generated cMet-binding peptide sequence) [SEQ ID NO: 097] | 8.4 | 1.27 | – | – | –
GSEFECTGWPEFRCYEYAP (Synthetically generated cMet-binding peptide sequence) [SEQ ID NO: 100] | 8.4 | 1.20 | – | – | –
